# Test results: doi:10.1101/2023.10.26.564194 (bioRxiv, 2023)
# T1: recombinant His-Tag NRF2 truncation mutant Δ205-400 amino acids (Neh6/7 domains deleted) (UniProt Q16236 1-605, Δ205-400)
# T1 sequence: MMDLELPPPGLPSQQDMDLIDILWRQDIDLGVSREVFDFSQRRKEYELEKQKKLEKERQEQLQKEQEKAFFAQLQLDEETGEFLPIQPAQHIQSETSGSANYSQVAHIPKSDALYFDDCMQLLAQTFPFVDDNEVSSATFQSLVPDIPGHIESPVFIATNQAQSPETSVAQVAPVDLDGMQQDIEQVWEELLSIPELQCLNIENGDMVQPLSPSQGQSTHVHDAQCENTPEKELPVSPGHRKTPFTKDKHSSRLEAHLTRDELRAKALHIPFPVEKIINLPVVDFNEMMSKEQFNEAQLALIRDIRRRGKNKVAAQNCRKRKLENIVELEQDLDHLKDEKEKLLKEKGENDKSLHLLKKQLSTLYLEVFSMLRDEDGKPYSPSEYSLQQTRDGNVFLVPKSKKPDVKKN
# T2: recombinant His-tagged NRF2, full length (UniProt Q16236 1-605)
# T2 sequence: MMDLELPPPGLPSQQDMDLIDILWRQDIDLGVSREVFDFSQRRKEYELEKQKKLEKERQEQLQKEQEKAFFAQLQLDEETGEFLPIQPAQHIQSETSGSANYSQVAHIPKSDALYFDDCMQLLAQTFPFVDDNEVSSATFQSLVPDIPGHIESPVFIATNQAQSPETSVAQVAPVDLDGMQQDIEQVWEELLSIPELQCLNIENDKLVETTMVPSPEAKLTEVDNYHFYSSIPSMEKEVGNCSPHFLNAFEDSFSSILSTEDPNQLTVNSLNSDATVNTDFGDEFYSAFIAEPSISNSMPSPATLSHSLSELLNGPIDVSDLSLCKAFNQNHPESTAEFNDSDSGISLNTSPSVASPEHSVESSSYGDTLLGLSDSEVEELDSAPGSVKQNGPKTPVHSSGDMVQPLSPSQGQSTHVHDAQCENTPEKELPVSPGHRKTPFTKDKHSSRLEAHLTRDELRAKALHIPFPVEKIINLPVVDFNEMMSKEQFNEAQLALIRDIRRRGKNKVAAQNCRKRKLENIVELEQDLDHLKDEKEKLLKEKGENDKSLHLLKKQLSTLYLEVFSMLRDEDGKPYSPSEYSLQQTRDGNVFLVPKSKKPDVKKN
# Legend:
# [1] = target: T1, recombinant His-Tag NRF2 truncation …; test: pull-down
# [2] = target: T2, recombinant His-tagged NRF2, full length; test: MST
binder,measurement,setting,value
recombinant αB-crystallin (natural protein) MDIAIHHPWIRRPFFPFHSPSRLFDQFFGEHLLESDLFPTSTSLSPFYLRPPSFLRAPSWFDTGLSEMRLEKDRFSVNLDVKHFSPEELKVKVLGDVIEVHGKHEERQDEHGFISREFHRKYRIPADVDPLTITSSLSSDGVLTVNGPRKQVSGPERTIPITREEKPAVTAAPKK,binding result,[1],binds
same,Kd,[2],859 ± 70.1 nM
